First the molecules themselves.
B2: Pex5p wildtype, recombinant His6-tagged (HisPex5p) (natural protein, S. cerevisiae, UniProt P35056 1-612, looked up)
chain: MDVGSCSVGNNPLAQLHKHTQQNKSLQFNQKNNGRLNESPLQGTNKPGISEAFISNVNAISQENMANMQRFINGEPLIDDKRRMEIGPSSGRLPPFSNVHSLQTSANPTQIKGVNDISHWSQEFQGSNSIQNRNADTGNSEKAWQRGSTTASSRFQYPNTMMNNYAYASMNSLSGSRLQSPAFMNQQQSGRSKEGVNEQEQQPWTDQFEKLEKEVSENLDINDEIEKEENVSEVEQNKPETVEKEEGVYGDQYQSDFQEVWDSIHKDAEEVLPSELVNDDLNLGEDYLKYLGGRVNGNIEYAFQSNNEYFNNPNAYKIGCLLMENGAKLSEAALAFEAAVKEKPDHVDAWLRLGLVQTQNEKELNGISALEECLKLDPKNLEAMKTLAISYINEGYDMSAFTMLDKWAETKYPEIWSRIKQQDDKFQKEKGFTHIDMNAHITKQFLQLANNLSTIDPEIQLCLGLLFYTKDDFDKTIDCFESALRVNPNDELMWNRLGASLANSNRSEEAIQAYHRALQLKPSFVRARYNLAVSSMNIGCFKEAAGYLLSVLSMHEVNTNNKKGDVGSLLNTYNDTVIETLKRVFIAMNRDDLLQEVKPGMDLKRFKGEFSF
notes: Pex5p, PTS1 receptor of Saccharomyces cerevisiae, UniProtKB P35056, full length; No cleavage of the His tag is described; the native MS mass of the monomer is printed as 71.459 kDa; also called Pex5p^WT; source: E. coli BL21 RIL (DE3), purified (Ni-NTA, MonoQ anion exchange, SEC)
B3: Pex5p-S507/523D, recombinant His6-tagged phospho-mimicking mutant (natural protein, S. cerevisiae, UniProt P35056 1-612, looked up)
chain: MDVGSCSVGNNPLAQLHKHTQQNKSLQFNQKNNGRLNESPLQGTNKPGISEAFISNVNAISQENMANMQRFINGEPLIDDKRRMEIGPSSGRLPPFSNVHSLQTSANPTQIKGVNDISHWSQEFQGSNSIQNRNADTGNSEKAWQRGSTTASSRFQYPNTMMNNYAYASMNSLSGSRLQSPAFMNQQQSGRSKEGVNEQEQQPWTDQFEKLEKEVSENLDINDEIEKEENVSEVEQNKPETVEKEEGVYGDQYQSDFQEVWDSIHKDAEEVLPSELVNDDLNLGEDYLKYLGGRVNGNIEYAFQSNNEYFNNPNAYKIGCLLMENGAKLSEAALAFEAAVKEKPDHVDAWLRLGLVQTQNEKELNGISALEECLKLDPKNLEAMKTLAISYINEGYDMSAFTMLDKWAETKYPEIWSRIKQQDDKFQKEKGFTHIDMNAHITKQFLQLANNLSTIDPEIQLCLGLLFYTKDDFDKTIDCFESALRVNPNDELMWNRLGASLANSNRDEEAIQAYHRALQLKPDFVRARYNLAVSSMNIGCFKEAAGYLLSVLSMHEVNTNNKKGDVGSLLNTYNDTVIETLKRVFIAMNRDDLLQEVKPGMDLKRFKGEFSF
notes: Pex5p, PTS1 receptor of Saccharomyces cerevisiae, UniProtKB P35056, full length, with S507D and S523D; No cleavage of the His tag is described; the native MS mass of the monomer is printed as 71.515 kDa; also called Pex5p^2D; Pex5p-S507D/523D; source: E. coli BL21 RIL (DE3), purified (Ni-NTA, MonoQ anion exchange, SEC)

One data set addresses T1, Pex5p^2D (Saccharomyces cerevisiae, UniProt P35056, S507D/S523D).
T1 construct: 10 μM full-length Pex5p^WT and Pex5p^2D mutant as a sample in the cell; made in house; host or cells: E. coli BL21 RIL (DE3)
Briefly: biochemical. The format is binding. The source says: The elution of proteins was monitored at 280 nm.

Data set [1] addresses B3. Put plainly: ITC; MicroCal VP-ITC, 25 °C; 10 µM Pex5p variant in the cell, 100 µM Pcs60p as titration ligand, 30 injections of 10 µl; 50 mM HEPES pH 7.5, 150 mM NaCl. As to conditions: both partners purified. (Isothermal titration calorimetry measures the heat released or taken up as one component is titrated into another.)
The target of data set [2] is B2. The description is as above. As to conditions: both partners purified.
The target of data set [3] is T2, Pex5p wildtype, recombinant His6-tagged (HisPex5p) (S. cerevisiae, UniProt P35056 1-612).
T2 chain: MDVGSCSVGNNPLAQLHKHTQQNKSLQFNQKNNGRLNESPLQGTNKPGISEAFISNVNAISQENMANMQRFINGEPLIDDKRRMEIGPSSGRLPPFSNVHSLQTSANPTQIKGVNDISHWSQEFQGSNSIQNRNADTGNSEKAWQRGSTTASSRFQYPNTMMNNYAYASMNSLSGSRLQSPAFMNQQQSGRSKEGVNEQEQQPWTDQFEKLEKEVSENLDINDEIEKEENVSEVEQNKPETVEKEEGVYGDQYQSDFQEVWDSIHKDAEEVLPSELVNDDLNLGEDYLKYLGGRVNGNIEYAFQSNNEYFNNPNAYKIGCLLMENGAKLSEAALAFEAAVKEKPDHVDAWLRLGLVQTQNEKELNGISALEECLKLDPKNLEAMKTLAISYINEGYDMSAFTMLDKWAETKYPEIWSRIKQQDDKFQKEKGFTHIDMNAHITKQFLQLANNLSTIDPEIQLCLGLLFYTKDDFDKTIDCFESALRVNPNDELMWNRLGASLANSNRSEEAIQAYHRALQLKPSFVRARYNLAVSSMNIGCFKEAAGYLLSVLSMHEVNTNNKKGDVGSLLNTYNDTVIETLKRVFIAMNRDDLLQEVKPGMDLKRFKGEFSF
Put plainly: ITC; representative single titration.

In data set [4] the target is T3, Pex5p-S507/523D, recombinant His6-tagged phospho-mimicking mutant (S. cerevisiae, UniProt P35056 1-612, S507D | S523D).
T3 sequence: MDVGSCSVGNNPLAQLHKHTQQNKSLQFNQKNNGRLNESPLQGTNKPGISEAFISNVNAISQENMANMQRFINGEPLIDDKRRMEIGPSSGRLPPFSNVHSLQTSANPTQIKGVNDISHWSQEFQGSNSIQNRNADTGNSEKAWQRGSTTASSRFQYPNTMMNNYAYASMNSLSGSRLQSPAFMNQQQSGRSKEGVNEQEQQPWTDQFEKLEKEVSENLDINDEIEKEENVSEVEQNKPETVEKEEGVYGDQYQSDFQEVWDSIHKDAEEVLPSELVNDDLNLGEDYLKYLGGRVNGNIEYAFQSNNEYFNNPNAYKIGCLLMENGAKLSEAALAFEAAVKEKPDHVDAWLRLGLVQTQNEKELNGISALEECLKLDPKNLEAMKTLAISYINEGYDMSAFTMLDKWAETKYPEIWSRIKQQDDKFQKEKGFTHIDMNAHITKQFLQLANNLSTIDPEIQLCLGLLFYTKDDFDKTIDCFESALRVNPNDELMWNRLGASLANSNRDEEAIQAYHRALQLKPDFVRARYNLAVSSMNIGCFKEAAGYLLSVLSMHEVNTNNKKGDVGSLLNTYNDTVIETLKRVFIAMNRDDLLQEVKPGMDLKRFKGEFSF
Put plainly: ITC; representative single titration.

In data set [5] the target is B3. Put plainly: native MS; Pex5p variant (7.5 µM) mixed with Pcs60p (5 µM), 5 min on ice; 200 mM ammonium acetate pH 6.8; collision energy 100 V. Particulars: both partners purified.
For data set [6], the target named is B2. Described as above. As to conditions: both partners purified.
Data set [7] deals with the molecule itself. Put plainly: native MS; single purified proteins in 200 mM ammonium acetate pH 6.8; collision energy 100 V.
Data set [8] deals with B2. Briefly: fluorescence polarisation; fluorescence anisotropy; 10 nM FITC-labelled Idp3p peptide, serial dilutions of Pex5p variant 160 nM to 38 µM; 50 mM HEPES pH 7.5, 150 mM NaCl; one-site binding-saturation fit. As to conditions: both partners purified. A general note: Fluorescence polarisation rises when a labelled molecule tumbles more slowly, as on binding a larger partner.

Values joined by “and” are separate entries in the source; they are usually repeats but may differ in a detail not shown here. Equal entries are not always repeated. Ends that are not written are not given here. Peptide text beside a SMILES is read from it. * marks the point of attachment. FITC = O=C1OC2(c3ccc(O)cc3Oc3cc(O)ccc32)c2ccc(NC(=S)*)cc21

Usually Kd stands for the free concentration of one partner at which half of the binding sites on the other are occupied at equilibrium, for simple one-to-one binding. `CC(C)C[C@H](NC(=O)[C@H](CCCCN)NC(=O)[C@H](C)NC(=O)[C@H](CCCCN)NC(=O)[C@H](CCCNC(=N)N)NC(=O)[C@H](CCCCN)NC(=O)[C@H](CC(N)=O)NC(=O)[C@H](CCC(=O)O)NC(=O)[C@H](CC(N)=O)NC(=O)[C@H](Cc1ccc(O)cc1)NC(=S)Nc1ccc2c(c1)C(=O)OC21c2ccc(O)cc2Oc2cc(O)ccc21)C(=O)O` [Cat2p peptide] ({FITC}-YNENKRKAKL-OH) showed a Kd on Pex5p^2D of 897 nM.

`CC(C)C[C@H](NC(=O)[C@H](CCCNC(=N)N)NC(=O)[C@H](CO)NC(=O)[C@H](CO)NC(=O)[C@H](CCCNC(=N)N)NC(=O)[C@H](CCCCN)NC(=O)[C@@H](NC(=O)[C@H](CCCNC(=N)N)NC(=O)[C@H](C)NC(=O)[C@H](Cc1ccc(O)cc1)NC(=S)Nc1ccc2c(c1)C(=O)OC21c2ccc(O)cc2Oc2cc(O)ccc21)C(C)C)C(=O)O` [Lys1p peptide] ({FITC}-YARVKRSSRL-OH) registered a Kd on Pex5p^2D of 3690 ± 1580 nM.

B1: Pcs60p, peroxisomal oxalyl-CoA synthetase, recombinant (natural protein, S. cerevisiae, UniProt P38137 1-543, looked up)
chain: MTSAATVTASFNDTFSVSDNVAVIVPETDTQVTYRDLSHMVGHFQTMFTNPNSPLYGAVFRQDTVAISMRNGLEFIVAFLGATMDAKIGAPLNPNYKEKEFNFYLNDLKSKAICVPKGTTKLQSSEILKSASTFGCFIVELAFDATRFRVEYDIYSPEDNYKRVIYRSLNNAKFVNTNPVKFPGFARSSDVALILHTSGTTSTPKTVPLLHLNIVRSTLNIANTYKLTPLDRSYVVMPLFHVHGLIGVLLSTFRTQGSVVVPDGFHPKLFWDQFVKYNCNWFSCVPTISMIMLNMPKPNPFPHIRFIRSCSSALAPATFHKLEKEFNAPVLEAYAMTEASHQMTSNNLPPGKRKPGTVGQPQGVTVVILDDNDNVLPPGKVGEVSIRGENVTLGYANNPKANKENFTKRENYFRTGDQGYFDPEGFLVLTGRIKELINRGGEKISPIELDGIMLSHPKIDEAVAFGVPDDMYGQVVQAAIVLKKGEKMTYEELVNFLKKHLASFKIPTKVYFVDKLPKTATGKIQRRVIAETFAKSSRNKSKL
notes: Pcs60p, peroxisomal oxalyl-CoA synthetase of S. cerevisiae, a PTS1-protein; GST tag removed with thrombin; native MS mass of the monomer printed as 60.632 kDa; also called wildtype Pcs60p; GSTPcs60p (before cleavage); source: E. coli BL21 RIL (DE3), purified (GSTrap, thrombin cleavage, SEC); not shown: GST, N-terminal, cleaved
As usually defined, the stoichiometry N is the number of molecules, sites or subunits per partner or assembly. Consider B1, for which the Kd in data set [1] stood at 338 nM; in [2] it was 17.4 nM; in [3], 13 nM; in [4], 271 nM. For the same molecule, the “stoichiometry N” value is 1 Pcs60p per Pex5p and 2 Pcs60p per Pex5p (1:2 receptor-cargo complex) and 1 Pcs60p per Pex5p (2:2 receptor-cargo complex) in [5]; 1 Pcs60p per Pex5p (2:2 receptor-cargo complex) and 1 Pcs60p per Pex5p and 2 Pcs60p per Pex5p (1:2 receptor-cargo complex) in data set [6].

For B2, the “stoichiometry N” value in [7] worked out at 2.

Regarding B3, the “stoichiometry N” value in data set [7] is 2.

{FITC}-YNEDKKGMCKL [Idp3p nonapeptide, FITC-YNEDKKGMCKL]: the Kd in [8] is 5540 nM.

These data come from article PMC9929924, “Phosphorylation of the receptor protein Pex5p modulates import of proteins into peroxisomes” (Biological Chemistry, 2022).
